The test system of data set [1] is neuronal cell death. As to the kind of experiment: Endostatin-induced cell death by methylene blue staining. It counts as cell-based. The note with it: precipitated form. The source says: FIG. 6 is a set of graphs illustrating that endostatin can form fibers comprising cross-β structure and stimulates plasminogen activation. […] Aβ is shown for comparison. Panel D is an analysis of endostatin-induced cell death by methylene blue staining. […] Direct cell death, but not cell detachment, is protected in the presence of sufficient glucose. Buffer prec. indicates control buffer.

The target of data set [2] is T1, tPA-mediated plasminogen activation (Homo sapiens, UniProt P00750).
T1 construct: purchased Boehringer-Ingelheim (Germany)
As to the kind of experiment: Plasminogen activation assay. To be noted: plasminogen 200 μg ml−1, tPA 200 pM, 5 μM co-factor; S-2251. It counts as biochemical. As for the experimental part:
Plasminogen (200 μg ml^−1) was incubated with tPA (200 pM) in the presence or the absence of a co-factor (5 μM of either endostatin, Aβ (1-40), or one the fibrin-derived peptides 85, 86 and 87). At the indicated time intervals, samples were taken and the reaction was stopped in a buffer containing 5 mM EDTA and 150 mM εACA. After collection of the samples, a chromogenic plasmin substrate S-2251 was added and plasmin activity was determined kinetically in a spectrophotometer at 37° C.

The target in data set [3] is T2, hAβ (1-40) (Homo sapiens, UniProt P05067).
T2 construct: Peptide Aβ (1-40), containing amino acids as present in the described human Alzheimer peptide; purchased Pepscan, Inc. or peptide synthesis facility of the Netherlands Cancer Institute; host or cells: chemical synthesis
As to the kind of experiment: Dot blot: binding of FXII to hAβ (1-40). The note with it: 2 nM FXII. As for the experimental part:
(§1) The binding of human FXII (Calbiochem, La Jolla, Calif., USA, catalogue #233490) to amyloid (poly)peptides was tested. Prototype amyloid peptides human amyloid-β (1-40) (hAβ (1-40)) and human fibrin fragment α147-159 FP13, and glucose-6-phosphate glycated bovine albumin (albumin-advanced glycation end product (AGE)) and glucose-6-phosphate glycated human hemoglobin (Hb-AGE), all containing cross-β structure, as well as negative controls mouse A islet amyloid polypeptide (ΔmIAPP), albumin-control and Hb-control, all three lacking the amyloid-specific structure, were coated to ELISA plates and overlayed with a concentration series of human factor XII. Binding of FXII was detected using a rabbit polyclonal anti-FXII antibody (Calbiochem, La Jolla, Calif., USA, catalogue #233504) and peroxidase-labeled swine anti-rabbit IgG. Wells were coated in triplicate. The FXII binding buffer included 10 mM HEPES pH 7.3, 137 mM NaCl, 11 mM D-glucose, 4 mM KCl, 1 mg ml^−1 albumin, 50 μM ZnCl2, 0.02% (m/v) NaN3 and 10 mM ε-amino caproic acid (εACA). Lysine analogue εACA was added to avoid putative binding of FXII to cross-β structure via the FXII kringle domain. In addition, binding of FXII to hAβ (1-40) and the prototype amyloid human amylin fragment hΔIAPP was tested using dot blot analysis. […]

For data set [4], the system named is ΔmIAPP, albumin-control and Hb-control. As to the kind of experiment: ELISA: binding of human FXII to negative controls. As for the experimental part:
as §1

The target in data set [5] is T3, human amylin fragment hΔIAPP (Homo sapiens, UniProt P10997).
T3 construct: purchased Pepscan, Inc. or peptide synthesis facility of the Netherlands Cancer Institute; host or cells: chemical synthesis
In words: Dot blot: binding of FXII to hΔIAPP. To be noted: 2 nM FXII. How it is done: as §1

Data set [6] has as its target T4, mΔIAPP (Mus musculus, UniProt P12968).
T4 construct: purchased Pepscan, Inc. or peptide synthesis facility of the Netherlands Cancer Institute; host or cells: chemical synthesis
In words: Dot blot: binding of FXII to mΔIAPP. To be noted: 2 nM FXII. As for the experimental part:
as §1

Data set [7] has as its target T5, Aβ (Homo sapiens, UniProt P05067).
T5 construct: Peptide Aβ (1-40), containing amino acids as present in the described human Alzheimer peptide; purchased Pepscan, Inc. or peptide synthesis facility of the Netherlands Cancer Institute; host or cells: chemical synthesis
In words: Solid-phase binding ELISA of tPA, plasminogen and plasmin to coated Aβ. To be noted: 50 mM ε-aminocaproic acid. As for the experimental part:
FIG. 3 is a set of graphs depicting binding of tPA, plasminogen and plasmin to Aβ. Aβ was coated onto plastic 96-well plates. Increasing concentrations of either (A) tPA or (B) plasmin(ogen) were allowed to bind to the immobilized peptide. After extensive washing, tPA and plasmin(ogen) binding was assessed by enzyme-linked immunosorbent assays using anti-tPA and anti-plasminogen antibodies. Binding of (C) tPA and (D) plasmin to Aβ in the presence of 50 mM ε-aminocaproic acid (ε-ACA) was assessed as in A and B.
To test whether tPA, plasminogen and plasmin bind Aβ, solid-phase binding assays were performed. Aβ was coated onto plastic 96-well plates and binding of the peptide to either plasmin(ogen) or to tPA was assessed by overlaying the coated peptide with increasing concentrations of either tPA, plasminogen or plasmin. Binding was assessed using specific antibodies to either plasmin(ogen) or to tPA by performing ELISA. […] However, activated plasminogen (plasmin) does bind to Aβ and does so with a kD of 47 nM. […] To test this, use was made of the lysine analogue ε-aminocaproic acid (εACA) and binding of plasmin and tPA to Aβ was tested in its presence. […] In contrast, εACA has no effect on the tPA-Aβ interaction (FIG. 3, Panel C). Thus, it was concluded that plasmin binds to free lysines that were generated during the incubation period, presumably via its lysine-binding Kringle domain(s). In line with this, the kD of plasminogen Kringle domain binding to free lysines in fibrin is similar to the kD for plasmin binding to Aβ.

Data set [8] concerns the target T6, H-43 binding to immobilized IAPP (Homo sapiens, UniProt P10997).
T6 construct: purchased Pepscan, Inc. (The Netherlands) or peptide synthesis facility at the Netherlands Cancer Institute; host or cells: synthetic peptide
T6 sequence (P10997 34-70 limits assumed): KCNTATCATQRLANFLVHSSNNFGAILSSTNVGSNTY
As to the kind of experiment: Competitive ELISA: tPA and H-43 on immobilized IAPP. To be noted: 100 nM H-43, concentration series of tPA. As for the experimental part: (§2) For ELISAs, amyloid compounds were immobilized on Exiqon peptide or protein Immobilizers (Vedbaek, Denmark), as described before. Anti-AGE antibodies and commercially available anti-Aβ (1-42) H-43 (Santa Cruz Biotechnology, Santa Cruz, Calif., USA) were diluted in PBS with 0.1% v/v Tween 20. Rabbit anti-human vitronectin K9234 was a kind gift of Dr. H. de Boer (UMC Utrecht) and was used as a negative control. For ELISAs with mouse polyclonal anti-albumin-AGE/Aβ, control serum with antibody elicited against an unrelated protein was used. Binding of mouse polyclonal anti-albumin-AGE/Aβ was performed using a dilution series of serum in PBS/0.1% Tween 20. For competitive binding assays with IAPP, anti-AGE1 was pre-incubated with varying IAPP concentrations. The IAPP fibers were spun down and the supernatant was applied in triplicate to wells of an ELISA plate coated with Aβ. Competitive binding assays with multiligand cross-β structure binding serine protease tPA were performed in a slightly different way. Coated Aβ and IAPP are overlayed with an anti-AGE1 or anti-Aβ (1-42) H-43 concentration related to the kD, together with a concentration series of tPA. A 10^7-10^4 times molar excess of lysine analogue εACA (10 mM) was present in the binding buffer in order to avoid binding of tPA to lysine residues of Aβ and IAPP, which would be independent of the presence of amyloid structures.

Data set [9] has as its system anti-AGE1 binding to amyloid peptides (Aβ (1-40), IAPP). In words: Competitive ELISA: tPA and anti-AGE1 on immobilized Aβ (1-40) and IAPP. To be noted: 250 or 18 nM α-AGE1; 10 mM εACA. As for the experimental part: as §2
The target of data set [10] is T7, albumin-g6p (Bos taurus, UniProt P02769).
T7 construct: Bovine serum albumin (BSA) fraction V pH 7.0; host or cells: bovine serum, fraction V
As to the kind of experiment: ELISA: binding of tPA-F-GST and RPTPμ-GST to glycated albumin. The note with it: in the presence of excess εACA. Also noted: species or system bovine. How it is done: (§3) Binding of tPA-F-GST and RPTPμ-GST to fibrous amyloids human Aβ (1-40) and albumin-[…] was assayed with an ELISA. In brief, human Aβ (1-40), albumin-[…], or buffer only, were coated on a peptide I Immobilizer or a protein I Immobilizer, respectively. Wells were incubated with the purified GST-tagged constructs or control medium and binding was detected using primary anti-GST monoclonal antibody 2F3 and RAMPO. The wells were also incubated with […] of tPA in the presence of 10 mM of εACA. Binding of tPA is independent of the lysyl binding site located at the kringle 2 domain. Binding of tPA was measured using primary antibody 374B and RAMPO. Experiments were performed in triplicate and blank readings of non-coated wells were substracted.

The target in data set [11] is T4, mΔIAPP. In words: Amyloid ELISA with tPA F-EGF-GST: non-amyloid control. It counts as binding. As for the experimental part: In order to define the affinity of the purified tPA F-EGF-GST recombinant protein, ELISAs were performed with immobilized amyloid (poly)peptides and non-amyloid control ΔmIAPP. Twenty-five μg ml^−1 of Aβ, FP13, IAPP or ΔmIAPP was immobilized on Exiqon peptide immobilizer plates. A concentration series of tPA F-EGF-GST in the presence of excess εACA was added to the wells and binding was assayed using anti-GST antibody Z-5. As a control, GST (Sigma-Aldrich, St. Louis, Mo., USA, catalogue #G-5663) was used at the same concentrations.

Data set [12] concerns the target T7, albumin-g6p. In words: Competitive binding of Thioflavin T and tPA to albumin-g6p (fluorescence, absorbance). Also noted: species or system bovine. The note with it: increasing amounts of tPA. How it is done:
A solution of 430 nM albumin-g6p and 19 μM of Thioflavin T was incubated with increasing amounts of tPA, for one hour at room temperature. For blank readings, albumin-g6p was omitted. Samples were prepared in four-fold in 50 mM glycine-NaOH pH 9. Emission measurements were performed as described above.
Albumin-g6p (500 nM) and Thioflavin T (10 μM) were incubated with increasing amounts of tPA, in 50 mM glycine-NaOH pH 9, for one hour at room temperature. Absorbance measurements were performed at the albumin-g6p Thioflavin T absorbance maximum at 420 nm. Samples were prepared in four-fold. For blank readings, albumin-g6p was omitted in the solutions. Absorbance was read in a quartz cuvette on a Pharmacia Biotech Ultrospec 3000 UV/visible spectrophotometer (Cambridge, England).

Data set [13] deals with T8, FXII binding to hAβ (1-40) (Homo sapiens, UniProt P05067).
T8 construct: Peptide Aβ (1-40), containing amino acids as present in the described human Alzheimer peptide; purchased Calbiochem (FXII); Pepscan or Netherlands Cancer Institute (peptide) 233490 (FXII)
In words: Competitive FXII - tPA ELISA on coated hAβ (1-40). To be noted: 2.5 nM FXII; concentration series up to 135 times the kD.

In data set [14] the target is Aβ (1-40) (Homo sapiens, UniProt P05067). In words: ELISA: binding of tPA-F-GST and RPTPμ-GST to human Aβ (1-40). Further details: Peptide Aβ (1-40), containing amino acids as present in the described human Alzheimer peptide; purchased Pepscan, Inc. (The Netherlands) or peptide synthesis facility at the Netherlands Cancer Institute; host or cells: synthetic peptide. The note with it: in the presence of excess εACA. How it is done: as §3

Data set [15] addresses T9, FXII binding to albumin-AGE (Bos taurus, UniProt P02769).
T9 construct: bovine serum albumin (fraction V, catalogue #A-7906); purchased Calbiochem (FXII); ICN or Sigma-Aldrich (albumin) 233490 (FXII); A-7906 (Sigma albumin)
As to the kind of experiment: Competitive FXII - tPA ELISA on coated albumin-AGE. To be noted: 15 nM FXII; concentration series up to 150 times the kD.

T7 sequence (P02769 25-607): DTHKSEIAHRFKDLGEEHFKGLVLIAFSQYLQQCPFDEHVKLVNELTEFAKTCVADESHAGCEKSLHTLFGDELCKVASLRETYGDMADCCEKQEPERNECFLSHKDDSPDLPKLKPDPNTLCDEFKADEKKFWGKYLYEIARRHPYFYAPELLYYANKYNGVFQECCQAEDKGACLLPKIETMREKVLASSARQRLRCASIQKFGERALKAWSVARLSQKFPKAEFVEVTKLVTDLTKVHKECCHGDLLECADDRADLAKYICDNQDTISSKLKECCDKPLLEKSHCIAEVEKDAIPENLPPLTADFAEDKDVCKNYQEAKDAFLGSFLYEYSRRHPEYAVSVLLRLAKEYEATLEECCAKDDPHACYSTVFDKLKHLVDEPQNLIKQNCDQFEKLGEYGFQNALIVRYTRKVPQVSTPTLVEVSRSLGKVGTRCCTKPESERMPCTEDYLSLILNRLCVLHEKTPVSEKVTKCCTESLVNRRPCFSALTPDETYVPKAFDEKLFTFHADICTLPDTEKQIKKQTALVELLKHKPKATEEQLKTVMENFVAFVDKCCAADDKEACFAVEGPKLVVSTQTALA
T2 sequence (P05067 672-711): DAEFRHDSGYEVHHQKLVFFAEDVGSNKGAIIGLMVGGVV
Sequence of Aβ (1-40) (P05067 672-711): as above
T8 sequence (P05067 672-711): as above
T5 sequence (P05067 672-711): as above
T1 sequence (P00750 36-562): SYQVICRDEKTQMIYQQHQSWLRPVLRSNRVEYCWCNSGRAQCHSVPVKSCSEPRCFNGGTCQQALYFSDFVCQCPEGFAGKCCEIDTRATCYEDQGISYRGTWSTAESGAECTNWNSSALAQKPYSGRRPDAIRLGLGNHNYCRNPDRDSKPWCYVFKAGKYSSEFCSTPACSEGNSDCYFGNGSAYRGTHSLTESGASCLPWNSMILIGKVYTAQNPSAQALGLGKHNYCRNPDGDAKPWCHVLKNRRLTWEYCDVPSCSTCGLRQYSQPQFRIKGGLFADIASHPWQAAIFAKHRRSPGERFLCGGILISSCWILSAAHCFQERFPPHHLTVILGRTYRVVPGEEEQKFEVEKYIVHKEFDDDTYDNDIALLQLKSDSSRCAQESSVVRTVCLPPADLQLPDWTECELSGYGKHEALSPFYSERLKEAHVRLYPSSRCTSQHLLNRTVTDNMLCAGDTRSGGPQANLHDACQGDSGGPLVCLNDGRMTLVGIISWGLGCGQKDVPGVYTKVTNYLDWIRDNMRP
T9 sequence (P02769 25-607): as the sequence (P02769 25-607) above

endostatin: in data set [1], the “induction of cell death” value is “capable of efficiently inducing cell death”. Further, the “stimulation of tPA-mediated plasmin formation” value in data set [2] is given as “stimulating activity”.
Regarding “FXII: human FXII (Calbiochem, catalogue #233490)”, the “binding to spotted hAβ (1-40)” value in [3] is “specifically bound”. In addition, the “binding to negative controls ΔmIAPP, albumin-control and Hb-control” value in data set [4] is listed as “does not bind”. In addition, the “binding to spotted hΔIAPP” value in [5] was “specifically bound”. In [6], the “binding to spotted mΔIAPP” value is reported as “No binding”.
“tPA: Alteplase (recombinant tissue-type plasminogen activator, tPA) from Boehringer-Ingelheim”: the “binding to Aβ in the presence of εACA” value in data set [7] is “no effect”. Also, in data set [8], the “inhibition of H-43 binding to immobilized IAPP” value was “effectively diminished”. Moreover, in data set [9], the “inhibition of anti-AGE1 binding to amyloid peptides” value is recorded as “inhibited”. Moreover, the “binding of control tPA to albumin-g6p” value in [10] is “bound”. In addition, the “binding to non-amyloid mΔIAPP” value in data set [11] is recorded as “No binding”. Moreover, the “competition with binding of Thioflavin T to glycated albumin” value in data set [12] is reported as “competed”. For the same substance, in data set [13], the “inhibition of FXII binding to hAβ (1-40)” value was “efficiently inhibits”. In addition, the “binding of control tPA to human Aβ (1-40)” value in [14] is “bound”. In addition, the “inhibition of FXII binding to albumin-AGE” value in data set [15] is given as “effectively abolished”.
